Measured values taken from paper doi:10.1101/2020.10.14.338756.

Experiments:
[1] = target: BPTI_K15R, displayed on yeast (bovine)
[2] = target: BPTI_A16S, displayed on yeast (bovine)
[3] = target: BPTI_K15A, displayed on yeast (bovine)

ΔΔG bind against BPTIWT [1]: -1.4 kcal/mol
ΔΔG bind against BPTIWT [2]: 4.5 kcal/mol
ΔΔG bind against BPTIWT [3]: 11.1 kcal/mol
Substance: Bovine trypsin (enzyme)
